Reference: a protein production outcome set (Wang et al. 2014)

Experiment: label from the status in PepcDB records

**Q.** For “MQRIMVIGGPGSGKSTLGRKLGARLGLPVVHMDPIYWLGDWVERDKAEAMRMAKEVADGSQWVFEGNHFASMAYRAERADLIVFLDMPRVLRMWRILWRSLRYYGRTRPDMGPNCPERFNRAFLKFCWTYDREGRLRALGFVDDWRDRRRVRILTSRRQVAAFLVEIDRQLEHHHHHH”, which protein production is on record?
**A.** failed

**Q.** For “MEYFLENPDHLWYLIAGISFVIELSIMGLSGPLLFFAIASLTTGILVTVGFVEGWQSEIFTVGVLTAIIAAILWKPLKSLQNSKDTTDNSSDMVGLTVLASTEINVSSGSIRYSGIDWQARLAEEANGESISAQSQCVIVAITGNIMLVKSL”, which protein production is on record?
**A.** failed

**Q.** Which protein production does the source give for “MVPEITIDVNVFPSPRKSSSNTVEINLKRESDDKCDDAPLFQITQLILKDVVNFDPHKTSPLLETIFPDSISGTRLCVEMALASERVPAPFDMYLHVTVRFVEESTSSSPLENKTCAICLEDMSQDVHDYQEMPNCPHVFHNDCIYKWLGHSNLCPLCRTVLEDEDDDDYPYYS” here?
**A.** failed

**Q.** With “MMEHHKVHTTIQALQAKRKKLLTELAELEAEIKVSSERKSSFNISLSPSLLAEIEEIEYEEKTSKERRINHSVLLSPSFMAKVDEYMKEKGFSNRSLLFEKALEFYMLKHP” as the sequence, how does the protein production read?
**A.** failed

**Q.** Which protein production does the source give for “MFLSAASSIIYLLLFFIASLIILVFSSDAFFDNAVPMFRSRGIGDMYAGTIFVGFASVLDEIALSASSLIFRHPEIGIGAVEGSNLITMAFFTVIVAVSYLEVAGEFTLDMIVILVLTILSMVFAEIFVHIPWFYSIALFVPFVVYLVIKAGGSKEAGYGPQEYSNIVLIVSFFLIFLSSDTLVRSTIGIASYTGINLVDLSAYGIGMVSSFPEIIMILVSLRGGRKVVSMGIFTGSTVYKMSLIPGIIIVSEPTGFSDIFYMLLAILVMSLLVLFLGIMSRKSQGRSNIH” here?
**A.** failed

**Q.** For “SIAILVIMHGESTASSMVNVANTLLDCNHAVAINMGLEDRVQDILVQAVEIANKIDKGKGILILTDMGSILTFAKVIRDATGKEVKAIDMVSTPIVIEATRKALTPEMTLEKLYFNIIESIKKHYGDMEVTYAEK”, which protein production is on record?
**A.** failed

**Q.** With “MPDLTRRNFSNLLSFPMPDTRPAKAGGQPRPFFRLGVVRFGLATALALFWVGAFASTATGQRTSRTPDQLENVGVDQKLGATIPKDLSFQNEQGEPVRLSQYFDGSTPVMLTLNYHRCPQLCRIQLQKFTKSLSGMSWTAGDKFKVLTVDISPYEGPKMARKAQERYATFLDRPEETVDGWHFLTGNQAAIETLTDSVGFRYQPLPEKEKQFAHPTTIIFLSGDGTITRYFTTLDPAPGDLRTALVEASDGTVGNVVDKAFLACARFNPDSNSYSASAFKLMQYGSVLTVIVMGAALFVFWRRENEQLETAHEEGLNAMVDEQA” as the sequence, how does the protein production read?
**A.** failed

**Q.** For “MAEKEKKTKKKKKKEKHQSSDISFKPSSDVKGLKFGGQIIVKSFTIRRARTFELLKLLSLPSSSSPPLLSTAAYLPTNFTILAHHAWHTLTLGLGTRKSKVVVFVFETEAMKSSVVAAEGGIWPSEIPLGDVNKKMIRKLKNWEMARFKFRKGCITFYVYAVRNAGNEGFAAAEDLKVILQAVVALKDFMDHTAMLVMPHQKSINYSSCPPFAMAH”, which protein production is on record?
**A.** failed

**Q.** Which protein production does the source give for “MKKYNVDWNYWVVRFLFVMALIVGYLLITNYQHFVHSVSGLLGILSPFITGFVIAYLLSGSQKKIEGLLERVPLPVVKKAKHGLSVLLLYLIILFIFVLTLNYIVPLLISNLVDLANSLPTFYDHMVQFVMSLEDKGILKTAAIEKYLNSVLKDLSPERFLNQWTQALFSLGTLTKNVSSFFLNAFLTLIISIYALVFKQSILTFVEKAAHKLLSEKVYKQTQTWLNTTNKIFYKFISCQFLDACIIGVSSTILLSILNVKFAVTLGILLGICNMIPYFGSIFASIVAGVITLFTGGVTQAITVLLVLLILQQIDGNIIGPRIMGDALNVNPILIIVSITIGGAYFGVLGMFLAVPVAAIIKIIVSEWLNESKENDKIVDSIES” here?
**A.** failed

**Q.** With “VNATQRKLLMQLVIGAAWVDGDLDQPERQYLQTLLERQKLDHDPDLLVLLETPIGLPQLEAWLVTFLQGTSTPTRLAALATIANLLMADGVVNRSEHSLLDEIHSLMAQIPASRDEEEYRQAAPGLVQGLSGLVRRALNGAKHLFQ” as the sequence, how does the protein production read?
**A.** not failed

**Q.** Which protein production does the source give for “MTPATTTLVFTYGTLKRGFSNHVLMQDLIRSGDASFKGVYQTLDKYPLVCGPYRVPFLLNKPGSGYHVNGELYAVSPRGLSRLDELEGISRGHYIRQPIRLAAAEEEEEEEGDLETEAPSSCVVEAYYAHKSYEEELWRRNRGRSFGAYTENEARGYVKRNDRPQHLSFLDHIRIFVSSPCD” here?
**A.** failed

**Q.** Which protein production does the source give for “KGLDKWGIYVPESAAQSVKDAVFEAGAGAIGDYSQCSFEWQGTGQFLPHHNAQPVVGHPGQLERTEELRVEFVAPARLRTTLIDAIRAAHPYEEPAFDVVSMQSTQDLETAEGLGRVGTLPEPMRFGDFVQQVADALPETSWGIRAAGDPEQMVHTVAVSSGSGDSFLDAVAALGVDVYVTSDLRHHPADESRRAQGPLLIDTAHWASEFPWTYQVQELLAQEFAQLDVEVATLRTDPWNISAHPQLR” here?
**A.** not failed

**Q.** Which protein production does the source give for “MALAVYLVPLPGLRASGHAALALLVFAVTMWATEAVPLAVTSLIILFAQPLIGVESFENAVIGFANPILFLMIGGFIMAEAIRKSGLAQRFTYYLLGRLGTSPERGLFVSIFSTGLLSAWIENVVAFAMLLPIIKEIVDIMGCSEPEKGKSNYAKAMILGASFGSLAGGFGTEIGTAPNLMAAAYTSIPFLNWMIFGLPLSIAMLLVTWFLLMRIFPSEVRALENGDALIGERIRMMGSMSRDEKLSAGILLFAILLWVTAGFTGINSYSVSLIAAVMFIFAGVITWKDAQKNIDWGLVVFFGGALSLGSALLKTGAAAWIIDKLVGMLGSDPSTVIVMLVLMAVAVIITQVMSNIALSAILVPLSVTLASAQHQPIGVYAVPVAIACSLSFMLPMADPTVAMAYGSGYVKLRDIPRAGIPIIAVGIILTVLVITTLAAPFIS” here?
**A.** failed

**Q.** Which protein production does the source give for “MRVMRICLVGLGAVGQGFLRAVQMKGEYLRERYGLDIRFTGVADSSGALHDPDGLDIRGVLEHKKRAGLGSHPSGYEGMTGDELLDEAEYDCLVEATPTNIEDGEPGRSLVLKAMGDGKHVVTSNKGHLALFYSELMEAASEAGVEFMFEASVGGAMPIINLARETLASCTIESVIGILNGTTNFILSRMASEGSSYRQALIEAQELGIAETNPAQDVEGTDAACKAVIIANSILGRPCTLRDVRVEGITGITQGAIELAAQEGYLIKLIAEISGDRLEVGPRLVRMGSPYAVDGTLNMATLRTDLAGEVTAVGRGAGSLETASAMLTDTITIWRKSGGR” here?
**A.** failed

**Q.** With “MLSLNQEVHGPKTSEVYGFVGSISIVVATVIFLIWGYVPDKFLESIGIYYYPSKYWAMAMPMYSMVTLLVALVFYIGLNFMSTSKPTSLNTLFDDYSREDVNFLPLMKNGEDRPIDPISDIDITRINDLMFDSHLAK” as the sequence, how does the protein production read?
**A.** failed

**Q.** Which protein production does the source give for “EAQRELTEMEARTRLTTEMMPAHIAHVGRDLRYTYSNRRLSQVIPGRPSDILGLTGREALGEGLFARIRPCLLRALEGEASVLEFSDEDSGSRIRAAFTPDRTGDGPINGVYILSMDVT” here?
**A.** failed

**Q.** Which protein production does the source give for “MYAVPILNVYDFEVKKDKETSYKSATEDYVNKTMGVEQGVLGLFAATDERDKTTSYIVEIYNDYLAFSNHTKNQASKDFKAVIPQIAEGNLNSAEIDVQIAKDKKIEQNDNTFAVYTVIDVKPENDKEFAEIIKNIVETTFNEEGTLLVYLGTDRRNFNKWCLFEVYKDIDSYLNHRSAKYFKDYITQTKDMIAGKKRAELQVLKIENKGGLDYKKLY” here?
**A.** not failed

**Q.** With “MSLTSLIIAEDQNMLRQAMVQLIKLHGDFEILADTDNGLDAMKLIEEYNPNVVILDIEMPGMTGLEVLAEIRKKHLNIKVIIVTTFKRPGYFEKAVVNDVDAYVLKERSIEELVETINKVNNGEKEGHHHHHH” as the sequence, how does the protein production read?
**A.** not failed

**Q.** With “MVAQLPEPIKIVRRAGDVRIHTFISAFTDDNIANATHIIEGRNKLVLVDGQFLVPYALQFRAYADSLGKEIDRIYLSHRHPDHWFGLGAAFSDIPIHALSETKEFLRQHGQDSLNDHWKLGNLAPKTLVIPEKTVRAGHEIIDGVKYVFDEVVDTEIDFLLTIGLPDVGVFIAQDLIYSGTHLYLTKYMEHWIGVLQGMLLSDYELFLPGHGFPADKNEVAKNIEYLSVAIEAAGHGLTNDAFKRFLLERFPERKCPGIFDIYIPRLFDNASEF” as the sequence, how does the protein production read?
**A.** failed

**Q.** Which protein production does the source give for “MTSGVAPLPGIVSTLSAAAEAVSEALIALDADGGILVVNGAAERVFDRRRDDLIGRSLDVVFGGDFAEAMASNLSAKVDALPPAPGGGRLLRRPGLPPLALHAGFSVTGDHGRPLATIVIRDLSPRADSWLETEERLGGFAASMPGIIFQRVAHRDGSLSYPFLSSGVHAVLGYHPAEMSVALDGCLNAIHWADRESYLRRLRQSAQTLAICSEEFRAITREGAVKWLSGASQPRAMANGDILWDGVLVDVTERKRAELWLEMIMDRAADGIVTINEQGVIESANAAVGTFFGYADRGELIGRRVEILMAEADRRQHTRHMLRYRETGDGALIGAGPRELTGRRRDGTTFALELALSEVRTEGRRIFIAVIRDITQRKETEGALAATRARLQTIADNVPGLVFQRELTAEGVLRFLFVSNGVHEVLGITPEALLADGELFLGAMDPDVRAAFRETLRQSASRLEPMEEDIKLRGRDGEERWLRGWSRPSRREDGSVVWDGVTLDVTDRKRAEDKLTFLAYYDPLTGLGNRSLFIDRFDRARRFAESIQAWVAVLSIGLDRFGMVNATIGHTMGDKVLIAVTRRLQQSLEAGSIVCRAGGDRFLVLLTGLTDRADLREVVATIQDAFVPPIEVEGQQFDIGLTIGGALHPEDGREAETLIMHADAALHRAKGGGGAFQMFTPEMGARAAHLLTIQHKLRRGLERHEFVAYFQPQVDLRSGLITGCEALARWNSPEDGLVPPGKFIGVAEEYGLIDAICGQVLDDSCRWLSTWRARGLPQVPVAVNISGRQFQNARQLVAMVDQALRQSGVDPRLLELELTESSAMSDPENAIAVVNLLRERGVSCAIDDFGTGYSSLSVLKRFPIGKLKIDRSFVMDVTTDPNDAAIVQAIIAMAHALNLRVVAEGVETLDHLAFLREVHCDAVQGFLFARPLPGEDMALMLAGGPPQPNPR” here?
**A.** failed

**Q.** For “MEELKTKGEHGNEEAKKAPATGETETVEKNVAIRRTSTASSEQDLDTFLLGDLEDSDEAPDDGDGSLEDDFDKIGNSDVEDEKQSSKATTNAGNEVSC”, which protein production is on record?
**A.** failed

**Q.** Which protein production does the source give for “MVRKALLFVIDVALTYFAGVVALFSRFGFDFQEMSRYDESVIVYTVISAVVYILNGNYSIVWEYANARDFLILIRGSVISYLSNLAFFYVYRGIVLPRSVGFAVFLGSMVLLVLSRITWQWMIVNGRGKVPGEKRILIIGAGDAGVSILEEFEKHPHLGKIVAFVDDSPRKIGRKVRGVPVFGPIEKTMEFVEKMNVDEIVIAIPSASRAEMERILKSIDLKKVRVKTLPSVRELIEGRVRISHLKEISIEDLLGREEVKVDFHEIGKFLKGKKILVTGAGGSIGSELCKQIARMNPAEIFLLGHGETSIYLINEFLTEHFPEVKKKRIIADVADRKIMEHWLTQLRPDVIFHVAAHKHVPLMEENPLEAFRVNVLGTMNLVELSERLGVKYFVFISTDKAVNPTSVMGLTKRIAELYILSREKNSTNFSIVRFGNVLGSRGSVVEKFRRQIEKGGPVTVTDPRMKRYFMSIPEAVSLILQSLLFSSGKDLFILDMGEQIPILKLAETMIMLSGYTPYQDIKIVFTGIRPGEKMYEELLYPYEVKELTPHSKIFRVKTSVLPGKESVEQAINRMKEAFENSDVKGLLTEMKKLVPEAQINVGSDN” here?
**A.** failed

**Q.** With “LDVGCNQGGFLRKLYDTTPFKEGVGIDLARLSLEKAETLKGERPLTYYLTDKPQETNRTFDTAVSTSVLYLIEDIPQHAQDLKEVLKPGGVYYASFADLTNNPSRQFMDDTINQYGATPSQNHSLKHIVDSFVDAGFEVAVMKEPVPDVIDLTHYSDFYLSPNDYLQTLYEESFLIKASVKEGIGK” as the sequence, how does the protein production read?
**A.** failed
